In publication PMC9482650, “Quantitative fragmentomics allow affinity mapping of interactomes” (Nature Communications, 2022):

Legend:
Assay in all cases: holdup assay
Details in all cases: plain residues with an end cap or a label only (N-terminal biotin on a linker: (peg)3)
MAGI1_5, Q96QZ7 = target: MAGI1_5, Q96QZ7
MAGI3_3, Q5TCQ9 = target: MAGI3_3, Q5TCQ9
PDZD8, Q8NEN9 = target: T1, PDZD8, Q8NEN9
T1 sequence (Q8NEN9 361-459, limits assumed, looked up): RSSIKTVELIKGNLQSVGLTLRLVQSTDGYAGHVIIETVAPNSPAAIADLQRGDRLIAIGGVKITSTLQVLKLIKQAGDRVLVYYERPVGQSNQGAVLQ

RIMS2, Q9UQ26 = target: RIMS2, Q9UQ26
MLLT4, P55196 = target: T2, MLLT4, P55196
T2 sequence (P55196 1002-1103, limits assumed, looked up): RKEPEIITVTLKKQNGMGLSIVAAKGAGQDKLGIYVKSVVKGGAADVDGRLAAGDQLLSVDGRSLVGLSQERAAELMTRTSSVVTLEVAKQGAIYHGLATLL

PDZD11, Q5EBL8 = target: T3, PDZD11, Q5EBL8
T3 sequence (Q5EBL8 42-139, limits assumed, looked up): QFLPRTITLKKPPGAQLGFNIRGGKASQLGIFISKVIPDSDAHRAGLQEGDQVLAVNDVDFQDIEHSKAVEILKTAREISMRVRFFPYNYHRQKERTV

MAGI2_1, Q86UL8 = target: T4, MAGI2_1, Q86UL8
T4 sequence (Q86UL8 12-111, limits assumed, looked up): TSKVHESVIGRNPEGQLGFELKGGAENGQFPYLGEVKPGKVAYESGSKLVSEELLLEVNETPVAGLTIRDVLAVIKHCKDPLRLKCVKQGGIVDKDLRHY

RIMS1, Q86UR5 = target: RIMS1, Q86UR5
MAGI3_5, Q5TCQ9 = target: MAGI3_5, Q5TCQ9
PTPN13_2, Q12923 = target: PTPN13_2, Q12923
SHANK3, Q9BYB0 = target: T5, SHANK3, Q9BYB0
T5 sequence (Q9BYB0 641-750, limits assumed, looked up): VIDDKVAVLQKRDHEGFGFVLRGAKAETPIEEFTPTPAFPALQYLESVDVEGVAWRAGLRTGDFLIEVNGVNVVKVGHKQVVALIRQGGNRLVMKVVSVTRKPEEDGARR

PARD3B_3, Q8TEW8 = target: PARD3B_3, Q8TEW8
MPDZ_2, O75970 = target: T6, MPDZ_2, O75970
T6 sequence (O75970 252-347, limits assumed, looked up): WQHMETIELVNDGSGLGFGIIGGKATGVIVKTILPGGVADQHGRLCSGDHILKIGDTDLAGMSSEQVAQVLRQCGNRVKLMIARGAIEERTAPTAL

USH1C_1, Q9Y6N9 = target: T7, USH1C_1, Q9Y6N9
T7 sequence (Q9Y6N9 82-179, limits assumed, looked up): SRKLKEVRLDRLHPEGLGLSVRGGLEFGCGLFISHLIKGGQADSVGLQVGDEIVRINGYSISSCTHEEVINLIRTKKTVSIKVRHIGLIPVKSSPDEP

NHERF3_2, Q5T2W1 = target: T8, NHERF3_2, Q5T2W1
T8 sequence (Q5T2W1 129-225, limits assumed, looked up): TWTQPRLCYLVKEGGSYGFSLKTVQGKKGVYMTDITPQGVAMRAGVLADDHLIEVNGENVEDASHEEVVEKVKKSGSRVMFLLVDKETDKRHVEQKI

PDZD2_3, O15018 = target: T9, PDZD2_3, O15018
T9 sequence (O15018 581-682, limits assumed, looked up): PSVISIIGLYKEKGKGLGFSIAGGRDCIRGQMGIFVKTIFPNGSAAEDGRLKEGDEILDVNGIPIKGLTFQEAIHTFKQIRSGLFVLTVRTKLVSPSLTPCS

PARD6G, Q9BYG4 = target: T10, PARD6G, Q9BYG4
T10 sequence (Q9BYG4 153-261, limits assumed, looked up): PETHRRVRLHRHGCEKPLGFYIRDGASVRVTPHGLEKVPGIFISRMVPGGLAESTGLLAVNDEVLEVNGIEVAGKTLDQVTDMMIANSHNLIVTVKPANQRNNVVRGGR

PDLIM4, P50479 = target: PDLIM4, P50479
MAGI3_6, Q5TCQ9 = target: MAGI3_6, Q5TCQ9
PDZD7_1, Q9H5P4 = target: T11, PDZD7_1, Q9H5P4
T11 sequence (Q9H5P4 81-178, limits assumed, looked up): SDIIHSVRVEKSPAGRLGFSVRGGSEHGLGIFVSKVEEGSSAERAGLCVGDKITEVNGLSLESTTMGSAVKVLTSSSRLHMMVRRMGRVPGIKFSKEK

PDZD2_4, O15018 = target: T12, PDZD2_4, O15018
T12 sequence (O15018 723-823, limits assumed, looked up): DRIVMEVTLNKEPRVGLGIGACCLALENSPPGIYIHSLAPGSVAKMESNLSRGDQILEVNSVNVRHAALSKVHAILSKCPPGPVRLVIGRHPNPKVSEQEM

MPDZ_6, O75970 = target: T13, MPDZ_6, O75970
T13 sequence (O75970 1003-1099, limits assumed, looked up): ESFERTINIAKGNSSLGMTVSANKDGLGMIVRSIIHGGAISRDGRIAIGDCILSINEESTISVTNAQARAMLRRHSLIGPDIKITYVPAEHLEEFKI

Sequence of PARD3B_3, Q8TEW8 (Q8TEW8 490-594): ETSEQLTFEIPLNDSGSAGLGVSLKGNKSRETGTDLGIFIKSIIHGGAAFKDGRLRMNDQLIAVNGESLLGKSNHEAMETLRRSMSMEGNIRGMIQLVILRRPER
Sequence of MAGI3_3, Q5TCQ9 (Q5TCQ9 572-655): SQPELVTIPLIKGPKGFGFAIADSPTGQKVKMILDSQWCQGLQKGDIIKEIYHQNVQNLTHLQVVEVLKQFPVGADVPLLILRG
Sequence of RIMS2, Q9UQ26 (Q9UQ26 637-758): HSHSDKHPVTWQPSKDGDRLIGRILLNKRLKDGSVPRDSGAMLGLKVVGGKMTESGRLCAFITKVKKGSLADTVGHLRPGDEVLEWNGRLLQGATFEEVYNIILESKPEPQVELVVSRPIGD
Sequence of MAGI3_6, Q5TCQ9 (Q5TCQ9 1014-1103): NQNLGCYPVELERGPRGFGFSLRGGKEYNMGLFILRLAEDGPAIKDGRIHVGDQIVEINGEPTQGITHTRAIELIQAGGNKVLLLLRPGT
Sequence of PDLIM4, P50479 (P50479 1-83): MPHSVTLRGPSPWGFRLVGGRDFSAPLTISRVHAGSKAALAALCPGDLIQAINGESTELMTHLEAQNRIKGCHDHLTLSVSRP
Sequence of MAGI3_5, Q5TCQ9 (Q5TCQ9 847-941): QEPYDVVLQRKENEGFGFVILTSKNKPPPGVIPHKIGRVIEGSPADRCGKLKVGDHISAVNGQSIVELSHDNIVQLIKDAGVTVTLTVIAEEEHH
Sequence of RIMS1, Q86UR5 (Q86UR5 584-692): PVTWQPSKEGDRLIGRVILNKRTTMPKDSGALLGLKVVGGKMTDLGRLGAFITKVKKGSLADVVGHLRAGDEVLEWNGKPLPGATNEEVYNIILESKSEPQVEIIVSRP
Sequence of PTPN13_2, Q12923 (Q12923 1363-1462): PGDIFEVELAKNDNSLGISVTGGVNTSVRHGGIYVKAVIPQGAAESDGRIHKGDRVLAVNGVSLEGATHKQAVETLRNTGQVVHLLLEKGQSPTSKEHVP
Sequence of MAGI1_5, Q96QZ7 (Q96QZ7 986-1098): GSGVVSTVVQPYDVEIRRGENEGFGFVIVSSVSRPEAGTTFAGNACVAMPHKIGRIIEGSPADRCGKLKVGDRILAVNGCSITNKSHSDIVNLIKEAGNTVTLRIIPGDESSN

B1: SARS-CoV-E, P59637 (peptide)
chain: NLNSSEGVPDLLV
pKd (MAGI1_5, Q96QZ7): below the threshold
pKd (MAGI3_3, Q5TCQ9): 3.85
pKd (PDZD8, Q8NEN9): below the threshold
pKd (RIMS2, Q9UQ26): below the threshold
pKd (MLLT4, P55196): 4.31
pKd (PDZD11, Q5EBL8): below the threshold
pKd (MAGI2_1, Q86UL8): below the threshold
pKd (RIMS1, Q86UR5): below the threshold
pKd (MAGI3_5, Q5TCQ9): below the threshold
pKd (PTPN13_2, Q12923): below the threshold
pKd (SHANK3, Q9BYB0): below the threshold
pKd (PARD3B_3, Q8TEW8): below the threshold
pKd (MPDZ_2, O75970): below the threshold
pKd (USH1C_1, Q9Y6N9): below the threshold
pKd (NHERF3_2, Q5T2W1): below the threshold
pKd (PDZD2_3, O15018): below the threshold
pKd (PARD6G, Q9BYG4): below the threshold
pKd (PDLIM4, P50479): below the threshold
pKd (MAGI3_6, Q5TCQ9): below the threshold
pKd (PDZD7_1, Q9H5P4): below the threshold
pKd (PDZD2_4, O15018): below the threshold
pKd (MPDZ_6, O75970): below the threshold
